Laboratory results taken from article PMC8746429.

Key:
[1] = biological target: digested β-vignin (β-vignin incubated 30 h with the 6 d.a.i. germinating cowpea seed extract): 27 kDa core with the proteolytic products that stay with it (Vigna unguiculata (cowpea)); assay: SEC; Superdex 75 10/300 GL, 25 mM phosphate buffer pH 7.0, 150 mM NaCl; β-vignin digested 30 h with the 6 d.a.i. extract, 50 μg loaded; eluted fractions on SDS-PAGE (silver stained); digest not purified from the extract
[2] = biological target: native β-vignin, the vicilin (7S globulin) storage protein of cowpea (Vigna unguiculata) seeds (Vigna unguiculata (cowpea)); assay: SEC; Superdex 200 10/300 GL, 25 mM Tris-HCl pH 9.0, 150 mM or 300 mM NaCl; 50 μg β-vignin (0.5 mg/mL) loaded
[3] = biological target: native β-vignin, the vicilin (7S globulin) storage protein of cowpea (Vigna unguiculata) seeds (Vigna unguiculata (cowpea)); assay: SEC; Superdex 75 10/300 GL, 25 mM phosphate buffer pH 7.0, 150 mM NaCl, 0.5 mL/min; peak areas by Multiple Peak Fit; monomer to trimer

percent monomer [1] [%] | percent trimer [1] [%] | stoichiometry N [2] | percent monomer [3] [%] | percent trimer [3] [%] | Substance
90.2 | 9.8 |  |  |  | digested β-vignin (β-vignin incubated 30 h with the 6 d.a.i. germinating cowpea seed extract): 27 kDa core with the proteolytic products that stay with it (complex)
 |  | 3 | 80 | 20 | native β-vignin, the vicilin (7S globulin) storage protein of cowpea (Vigna unguiculata) seeds (natural protein)
